Experimental findings from PMC4807364, “Interaction between Simian Virus 40 Major Capsid Protein VP1 and Cell Surface Ganglioside GM1 Triggers Vacuole Formation” (mBio, 2016) are described below.

The target in data set [1] is C-terminal deletion VP1 mutant (ΔC), truncated after amino acid position 305 (pentamers) (simian virus 40) (UniProt P03087). The data set can be described thus: negative-stain electron microscopy; purified pentamers diluted in PBS pH 7.2 at 20 µg/ml, stained with 1% uranyl acetate, Tecnai T12; step: VP1 chains to pentamer.
Data set [2] concerns the molecule itself. The data set is described as above.

By stoichiometry N is commonly meant the number of molecules, sites or subunits per partner or assembly. In data set [1], “C-terminal deletion VP1 mutant (ΔC), truncated after amino acid position 305 (pentamers) (from UniProt P03087 1-305) (domain or fragment)” showed a stoichiometry N of 5.

B1: full-length wild-type SV40 VP1 (pentamers) (natural protein)
chain: MAPTKRKGSCPGAAPKKPKEPVQVPKLVIKGGIEVLGVKTGVDSFTEVECFLNPQMGNPDEHQKGLSKSLAAEKQFTDDSPDKEQLPCYSVARIPLPNINEDLTCGNILMWEAVTVKTEVIGVTAMLNLHSGTQKTHENGAGKPIQGSNFHFFAVGGEPLELQGVLANYRTKYPAQTVTPKNATVDSQQMNTDHKAVLDKDNAYPVECWVPDPSKNENTRYFGTYTGGENVPPVLHITNTATTVLLDEQGVGPLCKADSLYVSAVDICGLFTNTSGTQQWKGLPRYFKITLRKRSVKNPYPISFLLSDLINRRTQRVDGQPMIGMSSQVEEVRVYEDTEELPGDPDMIRYIDEFGQTTTRMQ
notes: major capsid protein VP1 of simian virus 40, full length, wild type, in the pGEX-4T2 plasmid; The virus stocks are strain 776, but no strain is stated for the bacterial construct; The preparations held pentamers and higher-order structures; no intact VLPs were seen; also called major capsid protein VP1; wild-type VP1 pentamers
As to B1, in data set [2], the “stoichiometry N” value is 5.
